Results on 39 variants are retold here after the RNAGym collection of RNA variant scans (doi:10.7554/elife.90254).

The labels stand for the following.
B1: LINE1-full (parent)
chain: UACGUAGGUGGUUUUCCCCUGAUAGUGCUAAGGGGGCCUGGAAGUUUGGACUGGGCAGAGCUCAACACAGCGUGGCAAAGUGGCUGUGGCUAGACUGCCUCUCUGGAUUCCUCGUCACUCAGCAGGGCAUCUCUGAGAGAAAUGCC

This data set covers variants of B1. Kind of data set: self-cleavage, relative activity (ratio to wild type); higher = more cleavage; in vitro, sequencing; the parent is a self-cleaving ribozyme.
Take UACGUAGGUGGUUUUCCCCUGAUAGUGCUAAGGGGGCCUGGAAGUUUGGACUGGGCAGAGCUCAACACAGCGUGGCAAAGUGGCUGUGGCUAGACUGCCUCUCUGGAUUCCUCGUCACUCAGCGGGGCACCUCUGAGAGAAAUGCC: the self-cleavage was 1.58.

As to UACGUAGGUGGUUUUCCCCUGAUAGUGCUAAGGGGGCCUGGAAGUUUGGACUGGGCAGAGCUCAACACAGCGUGGCAAAGUGGCUGUGGCUAGACUGCCUCUCUGGAUUCCUCGUCACUCAGUAGGGCAUCUCUGAGAGAAGUGCC, the self-cleavage came to 1.32.

Regarding UACGUAGGUGGUUUUCCCCUGAUAGUGCUAAGGGGGCCUGGAAGUUUGGACUGGGCAGAGCUCAACACAGCGUGGCAAAGUGGCUGUGGCUAGACUGCCUCUCUGGAUUCCUCGUCACUCAGUAGGGCAUCCCUGAGAGAAAUGCC, the self-cleavage worked out at 1.53.

In the case of UACGUAGGUGGUUUUCCCCUGAUAGUGCUAAGGGGGCCUGGAAGUUUGGACUGGGCAGAGCUCAACACAGCGUGGCAAAGUGGCUGUGGCUAGACUGCCUCUCUGGAUUCCUCGUCACUCAGCCGGGCAUCUCUGAGAGAGAUGCC, the self-cleavage is 1.71.

As to UACGUAGGUGGUUUUCCCCUGAUAGUGCUAAGGGGGCCUGGAAGUUUGGACUGGGCAGAGCUCAACACAGCGUGGCAAAGUGGCUGUGGCUAGACUGCCUCUCUGGAUUCCUCGUCACUCAGCGAGGCAUCUCUGAGAGAAAUGCC, the self-cleavage worked out at 0.75.

Turning to UACGUAGGUGGUUUUCCCCUGAUAGUGCUAAGGGGGCCUGGAAGUUUGGACUGGGCAGAGCUCAACACAGCGUGGCAAAGUGGCUGUGGCUAGACUGCCUCUCUGGAUUCCUCGUCACUCAGCCGGGCAUCUCCGAGAGAAAUGCC, the self-cleavage was 2.04.

Consider UACGUAGGUGGUUUUCCCCUGAUAGUGCUAAGGGGGCCUGGAAGUUUGGACUGGGCAGAGCUCAACACAGCGUGGCAAAGUGGCUGUGGCUAGACUGCCUCUCUGGAUUCCUCGUCACUCAGCUGGGCAUCUCUGGGAGAAAUGCC, for which the self-cleavage came out at 1.43.

For UACGUAGGUGGUUUUCCCCUGAUAGUGCUAAGGGGGCCUGGAAGUUUGGACUGGGCAGAGCUCAACACAGCGUGGCAAAGUGGCUGUGGCUAGACUGCCUCUCUGGAUUCCUCGUCACUCAGUGGGGCAUCUCUGAGAGAAAUGCC, the self-cleavage stood at 1.25.

Regarding UACGUAGGUGGUUUUCCCCUGAUAGUGCUAAGGGGGCCUGGAAGUUUGGACUGGGCAGAGCUCAACACAGCGUGGCAAAGUGGCUGUGGCUAGACUGCCUCUCUGGAUUCCUCGUCACUCAGCCGGGCAUCUCUGGGAGAAAUGCC, the self-cleavage stood at 1.15.

For UACGUAGGUGGUUUUCCCCUGAUAGUGCUAAGGGGGCCUGGAAGUUUGGACUGGGCAGAGCUCAACACAGCGUGGCAAAGUGGCUGUGGCUAGACUGCCUCUCUGGAUUCCUCGUCACUCAGUAGGGCGUCUCUGAGAGAAAUGCC, the self-cleavage stood at 1.37.

On to UACGUAGGUGGUUUUCCCCUGAUAGUGCUAAGGGGGCCUGGAAGUUUGGACUGGGCAGAGCUCAACACAGCGUGGCAAAGUGGCUGUGGCUAGACUGCCUCUCUGGAUUCCUCGUCACUCAGCGGGGCAUCUCUGAGAGAAAAGCC, for which the self-cleavage was determined as 0.98.

Turning to UACGUAGGUGGUUUUCCCCUGAUAGUGCUAAGGGGGCCUGGAAGUUUGGACUGGGCAGAGCUCAACACAGCGUGGCAAAGUGGCUGUGGCUAGACUGCCUCUCUGGAUUCCUCGUCACUCAGCGGGGCAUCUCUGAGAGAAACGCC, the self-cleavage came out at 0.62.

Regarding UACGUAGGUGGUUUUCCCCUGAUAGUGCUAAGGGGGCCUGGAAGUUUGGACUGGGCAGAGCUCAACACAGCGUGGCAAAGUGGCUGUGGCUAGACUGCCUCUCUGGAUUCCUCGUCACUCAGUAGGGCAUCUCUGAGAGAGAUGCC, the self-cleavage was found to be 1.24.

In the case of UACGUAGGUGGUUUUCCCCUGAUAGUGCUAAGGGGGCCUGGAAGUUUGGACUGGGCAGAGCUCAACACAGCGUGGCAAAGUGGCUGUGGCUAGACUGCCUCUCUGGAUUCCUCGUCACUCAGCCGGGCAUCUCUGAUAGAAAUGCC, the self-cleavage was determined as 0.75.

As for UACGUAGGUGGUUUUCCCCUGAUAGUGCUAAGGGGGCCUGGAAGUUUGGACUGGGCAGAGCUCAACACAGCGUGGCAAAGUGGCUGUGGCUAGACUGCCUCUCUGGAUUCCUCGUCACUCAGUAGGGCAUCUCUCAGAGAAAUGCC, the self-cleavage was 1.97.

Consider UACGUAGGUGGUUUUCCCCUGAUAGUGCUAAGGGGGCCUGGAAGUUUGGACUGGGCAGAGCUCAACACAGCGUGGCAAAGUGGCUGUGGCUAGACUGCCUCUCUGGAUUCCUCGUCACUCAGCCGGGCAUCUCUGAGAGAAAAGCC, for which the self-cleavage was found to be 1.24.

In the case of UACGUAGGUGGUUUUCCCCUGAUAGUGCUAAGGGGGCCUGGAAGUUUGGACUGGGCAGAGCUCAACACAGCGUGGCAAAGUGGCUGUGGCUAGACUGCCUCUCUGGAUUCCUCGUCACUCAGCCGGGCAUCUCUGAGAGAAACGCC, the self-cleavage stood at 2.43.

As to UACGUAGGUGGUUUUCCCCUGAUAGUGCUAAGGGGGCCUGGAAGUUUGGACUGGGCAGAGCUCAACACAGCGUGGCAAAGUGGCUGUGGCUAGACUGCCUCUCUGGAUUCCUCGUCACUCAGCGGGGCAUCUCUGAGAAAAAUGCC, the self-cleavage came to 1.84.

With UACGUAGGUGGUUUUCCCCUGAUAGUGCUAAGGGGGCCUGGAAGUUUGGACUGGGCAGAGCUCAACACAGCGUGGCAAAGUGGCUGUGGCUAGACUGCCUCUCUGGAUUCCUCGUCACUCAGAAGGGCAUCUCUGAGGGAAAUGCC, the self-cleavage turned out to be 1.82.

Take UACGUAGGUGGUUUUCCCCUGAUAGUGCUAAGGGGGCCUGGAAGUUUGGACUGGGCAGAGCUCAACACAGCGUGGCAAAGUGGCUGUGGCUAGACUGCCUCUCUGGAUUCCUCGUCACUCAGCGGGGCAUCUCUGAGUGAAAUGCC: the self-cleavage was determined as 1.23.

UACGUAGGUGGUUUUCCCCUGAUAGUGCUAAGGGGGCCUGGAAGUUUGGACUGGGCAGAGCUCAACACAGCGUGGCAAAGUGGCUGUGGCUAGACUGCCUCUCUGGAUUCCUCGUCACUCAGCCGGGCAUCUCUGAGAGGAAUGCC: the self-cleavage is 1.88.

In the case of UACGUAGGUGGUUUUCCCCUGAUAGUGCUAAGGGGGCCUGGAAGUUUGGACUGGGCAGAGCUCAACACAGCGUGGCAAAGUGGCUGUGGCUAGACUGCCUCUCUGGAUUCCUCGUCACUCAGCGGGGCAUCUCUGAGAGAAAUCCC, the self-cleavage turned out to be 0.68.

Regarding UACGUAGGUGGUUUUCCCCUGAUAGUGCUAAGGGGGCCUGGAAGUUUGGACUGGGCAGAGCUCAACACAGCGUGGCAAAGUGGCUGUGGCUAGACUGCCUCUCUGGAUUCCUCGUCACUCAGCGGGGCAUCUCUGAGAGUAAUGCC, the self-cleavage was found to be 0.94.

For UACGUAGGUGGUUUUCCCCUGAUAGUGCUAAGGGGGCCUGGAAGUUUGGACUGGGCAGAGCUCAACACAGCGUGGCAAAGUGGCUGUGGCUAGACUGCCUCUCUGGAUUCCUCGUCACUCAGCUGGGCAUCUCUGAGUGAAAUGCC, the self-cleavage is 1.37.

In the case of UACGUAGGUGGUUUUCCCCUGAUAGUGCUAAGGGGGCCUGGAAGUUUGGACUGGGCAGAGCUCAACACAGCGUGGCAAAGUGGCUGUGGCUAGACUGCCUCUCUGGAUUCCUCGUCACUCAGCUGGGCAUCUCUGAGGGAAAUGCC, the self-cleavage was 1.79.

On to UACGUAGGUGGUUUUCCCCUGAUAGUGCUAAGGGGGCCUGGAAGUUUGGACUGGGCAGAGCUCAACACAGCGUGGCAAAGUGGCUGUGGCUAGACUGCCUCUCUGGAUUCCUCGUCACUCAGCGGGGCAUCUCUGAGAGAAGUGCC, for which the self-cleavage was found to be 0.72.

With UACGUAGGUGGUUUUCCCCUGAUAGUGCUAAGGGGGCCUGGAAGUUUGGACUGGGCAGAGCUCAACACAGCGUGGCAAAGUGGCUGUGGCUAGACUGCCUCUCUGGAUUCCUCGUCACUCAGCUGGGCAUCUCUGAGAGUAAUGCC, the self-cleavage is 1.09.

Consider UACGUAGGUGGUUUUCCCCUGAUAGUGCUAAGGGGGCCUGGAAGUUUGGACUGGGCAGAGCUCAACACAGCGUGGCAAAGUGGCUGUGGCUAGACUGCCUCUCUGGAUUCCUCGUCACUCAGCCGGGCAUCUCUGAGGGAAAUGCC, for which the self-cleavage amounted to 1.39.

Regarding UACGUAGGUGGUUUUCCCCUGAUAGUGCUAAGGGGGCCUGGAAGUUUGGACUGGGCAGAGCUCAACACAGCGUGGCAAAGUGGCUGUGGCUAGACUGCCUCUCUGGAUUCCUCGUCACUCAGCGGGGCAUCUCUUAGAGAAAUGCC, the self-cleavage amounted to 1.49.

For the variant UACGUAGGUGGUUUUCCCCUGAUAGUGCUAAGGGGGCCUGGAAGUUUGGACUGGGCAGAGCUCAACACAGCGUGGCAAAGUGGCUGUGGCUAGACUGCCUCUCUGGAUUCCUCGUCACUCAGCGGGGCAUCUCUGAGAGAAAUGCA, the self-cleavage was determined as 0.84.

With UACGUAGGUGGUUUUCCCCUGAUAGUGCUAAGGGGGCCUGGAAGUUUGGACUGGGCAGAGCUCAACACAGCGUGGCAAAGUGGCUGUGGCUAGACUGCCUCUCUGGAUUCCUCGUCACUCAGCUGGGCGUCUCUGAGAGAAAUGCC, the self-cleavage amounted to 1.72.

Take UACGUAGGUGGUUUUCCCCUGAUAGUGCUAAGGGGGCCUGGAAGUUUGGACUGGGCAGAGCUCAACACAGCGUGGCAAAGUGGCUGUGGCUAGACUGCCUCUCUGGAUUCCUCGUCACUCAGCUGGGCAUCUCUGAGAGAUAUGCC: the self-cleavage was 1.27.

As to UACGUAGGUGGUUUUCCCCUGAUAGUGCUAAGGGGGCCUGGAAGUUUGGACUGGGCAGAGCUCAACACAGCGUGGCAAAGUGGCUGUGGCUAGACUGCCUCUCUGGAUUCCUCGUCACUCAGCGGGGCAUCUCUGCGAGAAAUGCC, the self-cleavage came to 1.19.

As to UACGUAGGUGGUUUUCCCCUGAUAGUGCUAAGGGGGCCUGGAAGUUUGGACUGGGCAGAGCUCAACACAGCGUGGCAAAGUGGCUGUGGCUAGACUGCCUCUCUGGAUUCCUCGUCACUCAGCGGGGCAUCUCUGGGAGAAAUGCC, the self-cleavage is 1.14.

In the case of UACGUAGGUGGUUUUCCCCUGAUAGUGCUAAGGGGGCCUGGAAGUUUGGACUGGGCAGAGCUCAACACAGCGUGGCAAAGUGGCUGUGGCUAGACUGCCUCUCUGGAUUCCUCGUCACUCAGCCGGGCAUCCCUGAGAGAAAUGCC, the self-cleavage is 1.11.

Consider UACGUAGGUGGUUUUCCCCUGAUAGUGCUAAGGGGGCCUGGAAGUUUGGACUGGGCAGAGCUCAACACAGCGUGGCAAAGUGGCUGUGGCUAGACUGCCUCUCUGGAUUCCUCGUCACUCAGCGGGGCUUCUCUGAGAGAAAUGCC, for which the self-cleavage came out at 1.06.

On to UACGUAGGUGGUUUUCCCCUGAUAGUGCUAAGGGGGCCUGGAAGUUUGGACUGGGCAGAGCUCAACACAGCGUGGCAAAGUGGCUGUGGCUAGACUGCCUCUCUGGAUUCCUCGUCACUCAGCGGGGCGUCUCUGAGAGAAAUGCC, for which the self-cleavage came to 0.96.

Turning to UACGUAGGUGGUUUUCCCCUGAUAGUGCUAAGGGGGCCUGGAAGUUUGGACUGGGCAGAGCUCAACACAGCGUGGCAAAGUGGCUGUGGCUAGACUGCCUCUCUGGAUUCCUCGUCACUCAGCUGGGCAUCUCUGAGAGAAGUGCC, the self-cleavage came out at 1.51.

Take UACGUAGGUGGUUUUCCCCUGAUAGUGCUAAGGGGGCCUGGAAGUUUGGACUGGGCAGAGCUCAACACAGCGUGGCAAAGUGGCUGUGGCUAGACUGCCUCUCUGGAUUCCUCGUCACUCAGCGGGGCAUCUCUGAGAGAGAUGCC: the self-cleavage was determined as 1.39.
